# Numbering of substitutions follows the chain as printed.
# T1: muCD98hc ECD Avi-His (mouse, UniProt P10852 100-526)
# T1 construct: biotinylated on the Avi tag where captured on streptavidin; also called Mouse CD98-AVI-His; Mouse CD98hc-AVI-His
# T1 sequence: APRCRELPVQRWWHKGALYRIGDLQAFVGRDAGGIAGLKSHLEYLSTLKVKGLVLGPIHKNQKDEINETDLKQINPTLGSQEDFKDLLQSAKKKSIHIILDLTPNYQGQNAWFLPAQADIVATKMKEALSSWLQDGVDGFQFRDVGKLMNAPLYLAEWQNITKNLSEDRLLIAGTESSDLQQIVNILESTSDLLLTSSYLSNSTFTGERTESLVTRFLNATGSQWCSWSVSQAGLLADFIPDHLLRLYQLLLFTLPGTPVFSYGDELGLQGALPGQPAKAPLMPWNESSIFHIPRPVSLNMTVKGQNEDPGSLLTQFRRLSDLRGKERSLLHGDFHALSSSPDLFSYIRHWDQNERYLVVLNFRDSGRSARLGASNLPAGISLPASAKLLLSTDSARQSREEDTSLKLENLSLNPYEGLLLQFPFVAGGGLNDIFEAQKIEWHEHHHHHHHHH
# T2: huCD98hc ECD Avi-His (human, UniProt P08195 105-529)
# T2 construct: biotinylated on the Avi tag where captured on streptavidin; also called Human CD98-AVI-His; Human CD98hc-AVI-His
# T2 sequence: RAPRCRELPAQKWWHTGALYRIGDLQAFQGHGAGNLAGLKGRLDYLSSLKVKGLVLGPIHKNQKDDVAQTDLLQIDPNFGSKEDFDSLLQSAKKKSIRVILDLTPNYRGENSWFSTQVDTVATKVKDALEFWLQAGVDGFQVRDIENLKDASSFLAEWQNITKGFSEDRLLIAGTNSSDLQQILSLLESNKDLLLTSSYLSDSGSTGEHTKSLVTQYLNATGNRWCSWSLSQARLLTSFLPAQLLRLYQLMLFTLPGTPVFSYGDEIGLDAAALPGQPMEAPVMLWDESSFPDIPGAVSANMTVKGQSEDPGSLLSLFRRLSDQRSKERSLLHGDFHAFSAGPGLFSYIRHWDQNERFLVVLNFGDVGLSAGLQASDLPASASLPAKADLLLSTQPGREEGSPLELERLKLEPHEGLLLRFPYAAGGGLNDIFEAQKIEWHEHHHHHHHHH
# T3: Cyno CD98hc ECD Avi-His (cynomolgus macaque, UniProt P08195 105-529 (human entry))
# T3 construct: biotinylated on the Avi tag where captured on streptavidin; also called Cyno CD98-AVI-His; Cyno CD98hc-AVI-His
# T3 chain: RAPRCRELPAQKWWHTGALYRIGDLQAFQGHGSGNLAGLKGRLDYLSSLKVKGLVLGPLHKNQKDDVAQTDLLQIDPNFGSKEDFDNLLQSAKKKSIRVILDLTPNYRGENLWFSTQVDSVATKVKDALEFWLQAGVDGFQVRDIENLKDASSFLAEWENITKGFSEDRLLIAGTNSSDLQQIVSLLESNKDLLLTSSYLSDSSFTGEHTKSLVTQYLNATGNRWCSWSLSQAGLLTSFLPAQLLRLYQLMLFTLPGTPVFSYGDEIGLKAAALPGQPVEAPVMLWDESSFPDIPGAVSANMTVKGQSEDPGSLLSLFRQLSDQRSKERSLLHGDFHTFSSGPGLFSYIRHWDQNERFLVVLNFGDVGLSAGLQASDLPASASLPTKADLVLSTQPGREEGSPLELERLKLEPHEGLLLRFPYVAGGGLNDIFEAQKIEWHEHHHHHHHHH
# B1: CD98HC.04.010 (antibody, V domains shown)
# VH: QVQLQQSGAELMKPGASVKISCKATGYTFSTYWIEWVKQRPGHGLEWIGEILPGSGTTTYNEKFKGKATFTADTSSNTAYMQLSSLTSEDSAVYYCARRTVYYRYEGIDYWGQGTTLTVSS
# VL: QIVLTQSPAIMSASPGEKVTITCSASSSVSYMFWFQQRPGTSPKLWIYTTSNLASGVPARFSGSGSGTSYSLTISRMEAEDAATYYCQQKNNYPFTFGSGTKLEIK
# notes: hybridoma IgG
# B2: CD98HC.04.009 (antibody, V domains shown)
# VH: QVQLKESGPGLVAPSQSLSITCTVSGFSLTSYGVHWVRQPPGKGLEWLGVIWAGGSTYYNSALMSRLSISKDNAKSQVLLKMSSLQTDDTAMYYCARDNYGGVYLDVWGAGTTVTVSS
# VL: ENVLTQSPASMSASPGEKVTMTCRASSSVSSSYLHWYQQKSGASPKLWIYSTSNLASGVPARFSGSGSGTSYSLTISSVEAEDAATYYCQQYSGYPLTFGSGTKLEIK
# notes: hybridoma IgG
# B3: CD98HC.03.031 (antibody, V domains shown)
# VH: QVQLQQSGAELVRPGVSVKISCKASGYTFTDYAMHWVKQSHAKSLEWIGVISTYYGDTTYNQKFKDKATMTVDKSSSTAYLELARLTSEDSAIYYCARVWLLSYAMDNWGQGTSVTVSS
# VL: DIVMTQSQRFMSTSVGDGVRITCKASQNVRTAVAWYQQKPGQSPKALINLAPNRHTGVPDRFTARGSGTDFTLTISNVQSEDLADYFCLQHWNYPLTFGAGTKLELK
# notes: hybridoma IgG
# B4: CD98HC.03.002 (antibody, V domains shown)
# VH: DVQLVESGGGLVQPGGSRKLSCAASGFTFSTFGMHWVRQAPEKGLEWVAYISGGSTNIYYADTVKGRFTISRDNPKNTLFLQMTSLRSEDTAMYYCARETTLLATNFDYWGQGTTLTVSS
# VL: DIQMTQTTSSLSASLGDRVTISCRASQDISNYLNWYQQKPDGTVKLLIYYTSRLHSGVPSRFSGSGSGTDYSLTISNLEQEDIATYFCQQGSTLPRTFGGGTKLEIK
# notes: hybridoma IgG
# B5: CD98HC.04.003 (antibody, V domains shown)
# VH: QVQLQQSGAELAKPGASLKMSCKASGYTFTDYYIHWVKQRPGQDLEWIGYINPNSAYTDSNQKFKDKATLTADKSSNTAYMQLSSLTSEDSAVYYCARKGHFYAPSFAYWGQGTLVTVSA
# VL: B4 VL with T69A, E79Q, S92D, R96Y, K107E
# notes: hybridoma IgG
# B6: CD98HC.04.006 (antibody, V domains shown)
# VH: EVNLVESGGDLVQPGGSLRLSCATSGFTFTDYFMSWVRQPPGKALEWLGFIRNKAYGYTTEYSASVKGRFTISRDNSQSIFYLQMNTLRLEDSATYYCARGPFISTAPFAYWGQGTLVTVSA
# VL: DIVMSQSPSSLAVSVGETVTMSCKSSQSLLYSSNQKNYLAWYQQKPGQSPKLLIYWGSTRESGVPDRFTGSGSGTDFTLTISSVKAEDLAVYYCQHYYGYPWTFGGGTKLEIK
# notes: hybridoma IgG
# B7: CD98HC.04.011 (antibody, V domains shown)
# VH: DVQLQESGPDLVKPSQSLSLTCSVTVYSFTSVYSWHWIRQFPGNKLEWMGYIHDSGTTNYNPSLKSRISVTRDTSKNQFFLQLNSVTTEDTATYYCARGRPYGYDGFAYWGQGTLVTVSA
# VL: DIQMTQSSSYLSVSLGDRVTITCKASDHINNWLAWYQQKPGNAPRLLITGAVNLETGVPSRFSGSGSGKDYTLSITSLQTEDVATYYCQQYWSIPRTFGGGTNLEIK
# notes: hybridoma IgG
# Biological target: T1, muCD98hc ECD Avi-His
# Experiment: ELISA, hybridoma supernatant
# Experimental: (§1) Briefly, 96-well polystyrene plates were coated with 5 μg/ml of streptavidin (Thermo Fisher, Cat #PI21125) in coating buffer (0.05M carbonate buffer, pH 9.6, Sigma, Cat #C3041) overnight at 4° C. Coated plates were then blocked with ELISA diluent (PBS+0.5% BSA+0.05% Tween20) for one hour. Blocking buffer was removed and human, cyno, or mouse Avi-His-tagged CD98hc and Avi-His-tagged human TfR polypeptides were added at 1 μg/ml in ELISA diluent and captured for 1 hour at room temperature. After washing three times with 300 μl of PBST (PBS+0.05% Tween20, Thermo 28352), the hybridoma cell culture supernatants or 1 μg/ml of commercially available purified mouse anti-human CD98hc monoclonal antibody (Sigma Aldrich, Cat #SAB 4700503) and rat anti-mouse CD98hc antibody (Bio-Rad Laboratories, Hercules, CA, Cat #MCA2684) were added (50 μl/well) to each well. After 30 minutes of incubation at room temperature, the plates were washed three times with 300 μl of PBST. […] After a final set of washes (3×300 μl in PBST), 50 μl/well of BioFx TMB substrate (Surmodics, Eden Praire, MN, Cat #TMBW-1000-01) was added to the wells. The reaction was then quenched after 5-10 mins with 50 μl/well of 2N sulfuric acid. The plates were read for absorbance at 450 nm on a SpectraMax M5 (Molecular Devices, Sunnyvale, CA) using SoftMax Pro software.
row,OD450,Binder
1,0.0907,B1
2,0.0688,B2
3,0.0843,B3
4,0.0802,B4
5,0.0565,B5
6,0.13,B6
7,0.067,B7

# Biological target: T2, huCD98hc ECD Avi-His
# Experiment: ELISA, hybridoma supernatant
# Experimental: as §1
row,OD450,Binder
1,1.48,B1
2,0.991,B2
3,1.06,B3
4,1.53,B4
5,1.6,B5
6,1.24,B6
7,1.16,B7

# Biological target: T4, Human TfR-AVI-His (control) (human, UniProt P02786 89-760)
# T4 construct: control protein; also called Avi-His-tagged human TfR; human transferrin receptor
# Experiment: ELISA, hybridoma supernatant
# Experimental: as §1
# T4 sequence (P02786 89-760 limits assumed): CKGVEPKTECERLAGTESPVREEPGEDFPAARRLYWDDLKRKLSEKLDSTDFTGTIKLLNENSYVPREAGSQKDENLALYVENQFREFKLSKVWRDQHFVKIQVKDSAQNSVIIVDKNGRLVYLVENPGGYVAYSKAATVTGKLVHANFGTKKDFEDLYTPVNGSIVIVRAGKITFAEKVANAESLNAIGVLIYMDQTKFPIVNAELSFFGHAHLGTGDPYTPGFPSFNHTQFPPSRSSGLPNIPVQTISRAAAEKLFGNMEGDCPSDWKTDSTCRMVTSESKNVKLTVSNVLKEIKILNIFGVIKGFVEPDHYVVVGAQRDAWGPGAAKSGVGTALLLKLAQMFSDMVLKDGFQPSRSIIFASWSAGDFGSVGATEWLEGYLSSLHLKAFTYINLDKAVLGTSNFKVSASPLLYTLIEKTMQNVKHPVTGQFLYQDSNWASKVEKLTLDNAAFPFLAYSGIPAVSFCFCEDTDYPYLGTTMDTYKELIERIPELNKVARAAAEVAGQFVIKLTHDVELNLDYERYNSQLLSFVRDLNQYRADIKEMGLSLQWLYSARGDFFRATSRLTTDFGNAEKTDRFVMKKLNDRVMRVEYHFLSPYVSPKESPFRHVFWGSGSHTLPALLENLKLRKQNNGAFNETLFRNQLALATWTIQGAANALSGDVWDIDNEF
row,OD450,Binder
1,0.102,B1
2,0.0743,B2
3,0.0873,B3
4,0.073,B4
5,0.0601,B5
6,0.129,B6
7,0.0705,B7

# Biological target: T3, Cyno CD98hc ECD Avi-His
# Experiment: ELISA, hybridoma supernatant
# Experimental: as §1
row,OD450,Binder
1,1.97,B1
2,1.42,B2
3,1.48,B3
4,1.69,B4
5,2.05,B5
6,1.71,B6
7,1.76,B7
